The values that follow come from PMC7332966.

The target of data set [1] is FANCI (I);FANCD2 (D2) (Homo sapiens;Homo sapiens, UniProt Q9NVI1;Q9BXW9 1-1328;1-1451, |). Kind of data set: PIFE; 150 mM NaCl; Kd only in bar graph; EMSA: 16 mM Tris-HCl pH 8, 150 mM NaCl, 4.4% glycerol, 0.07 mg/ml BSA, 7 mM DTT, 4 mM EDTA, 2 nM DNA, on ice 20 min, 4% PAGE in 0.5x TBE (4 C). PIFE: 150 mM NaCl, 125 nM DNA, 22 C. The following applies: protein: recombinant;recombinant; tags: His6-TEV-V5 (N-term); His6-3C, cleaved in some cases; copies: 1;1; label: 5' IRDye700 on both strands; blunt. In general terms: A gel shift assay detects complexes by their altered migration in electrophoresis.

Data set [2] has as its target FANCI R1285Q;FANCD2 (D2) (Homo sapiens;Homo sapiens, UniProt Q9NVI1;Q9BXW9 1-1328;1-1451, R1285Q|). Nature of the data set: PIFE; minor, insignificant reduction vs WT I+D2; Kd only in bar graph; EMSA: 16 mM Tris-HCl pH 8, 150 mM NaCl, 4.4% glycerol, 0.07 mg/ml BSA, 7 mM DTT, 4 mM EDTA, 2 nM DNA, on ice 20 min, 4% PAGE in 0.5x TBE (4 C). PIFE: 150 mM NaCl, 125 nM DNA, 22 C. The conditions noted are these: protein: recombinant;recombinant; tags: His6 (N-term);FLAG (EMSA); His6-3C, cleaved in some cases; copies: 1;1; label: 5' IRDye700 on both strands; blunt.

Chain of FANCI (I);FANCD2 (D2) (Q9NVI1 whole entry, chain 1 of 2): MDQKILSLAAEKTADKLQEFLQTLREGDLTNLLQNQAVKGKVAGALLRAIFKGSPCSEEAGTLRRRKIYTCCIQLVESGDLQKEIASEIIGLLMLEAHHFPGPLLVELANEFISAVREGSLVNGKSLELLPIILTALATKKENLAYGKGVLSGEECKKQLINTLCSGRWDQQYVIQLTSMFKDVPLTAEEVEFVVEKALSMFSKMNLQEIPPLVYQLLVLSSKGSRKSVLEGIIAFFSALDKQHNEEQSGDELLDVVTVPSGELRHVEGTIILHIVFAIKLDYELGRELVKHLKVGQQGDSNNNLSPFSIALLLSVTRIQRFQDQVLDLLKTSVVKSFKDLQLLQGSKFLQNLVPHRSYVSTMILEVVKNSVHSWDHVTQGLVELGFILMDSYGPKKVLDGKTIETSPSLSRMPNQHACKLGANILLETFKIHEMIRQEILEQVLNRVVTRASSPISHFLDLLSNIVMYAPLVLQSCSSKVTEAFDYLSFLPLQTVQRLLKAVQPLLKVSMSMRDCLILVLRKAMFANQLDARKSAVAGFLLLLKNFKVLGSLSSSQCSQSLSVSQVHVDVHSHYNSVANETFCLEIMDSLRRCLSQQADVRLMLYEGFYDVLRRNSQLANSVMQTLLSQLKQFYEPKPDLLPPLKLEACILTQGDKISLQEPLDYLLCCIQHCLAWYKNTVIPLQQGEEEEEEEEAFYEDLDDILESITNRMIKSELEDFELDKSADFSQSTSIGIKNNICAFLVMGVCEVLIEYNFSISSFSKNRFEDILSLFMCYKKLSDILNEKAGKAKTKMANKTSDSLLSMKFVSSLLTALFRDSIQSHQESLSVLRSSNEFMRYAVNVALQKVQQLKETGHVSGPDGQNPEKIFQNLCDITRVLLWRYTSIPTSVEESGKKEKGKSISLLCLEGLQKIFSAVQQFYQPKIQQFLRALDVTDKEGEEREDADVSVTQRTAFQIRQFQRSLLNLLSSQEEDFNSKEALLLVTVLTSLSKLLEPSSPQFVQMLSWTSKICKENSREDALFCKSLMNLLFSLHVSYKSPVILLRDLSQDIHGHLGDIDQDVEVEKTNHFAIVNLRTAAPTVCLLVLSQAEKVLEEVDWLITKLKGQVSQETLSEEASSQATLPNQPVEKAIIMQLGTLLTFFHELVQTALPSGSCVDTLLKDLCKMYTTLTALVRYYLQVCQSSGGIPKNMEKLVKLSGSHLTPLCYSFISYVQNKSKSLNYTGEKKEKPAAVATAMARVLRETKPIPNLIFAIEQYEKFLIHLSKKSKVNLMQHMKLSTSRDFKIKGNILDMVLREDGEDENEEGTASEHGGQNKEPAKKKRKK
Chain of FANCI (I);FANCD2 (D2) (Q9BXW9 whole entry, chain 2 of 2): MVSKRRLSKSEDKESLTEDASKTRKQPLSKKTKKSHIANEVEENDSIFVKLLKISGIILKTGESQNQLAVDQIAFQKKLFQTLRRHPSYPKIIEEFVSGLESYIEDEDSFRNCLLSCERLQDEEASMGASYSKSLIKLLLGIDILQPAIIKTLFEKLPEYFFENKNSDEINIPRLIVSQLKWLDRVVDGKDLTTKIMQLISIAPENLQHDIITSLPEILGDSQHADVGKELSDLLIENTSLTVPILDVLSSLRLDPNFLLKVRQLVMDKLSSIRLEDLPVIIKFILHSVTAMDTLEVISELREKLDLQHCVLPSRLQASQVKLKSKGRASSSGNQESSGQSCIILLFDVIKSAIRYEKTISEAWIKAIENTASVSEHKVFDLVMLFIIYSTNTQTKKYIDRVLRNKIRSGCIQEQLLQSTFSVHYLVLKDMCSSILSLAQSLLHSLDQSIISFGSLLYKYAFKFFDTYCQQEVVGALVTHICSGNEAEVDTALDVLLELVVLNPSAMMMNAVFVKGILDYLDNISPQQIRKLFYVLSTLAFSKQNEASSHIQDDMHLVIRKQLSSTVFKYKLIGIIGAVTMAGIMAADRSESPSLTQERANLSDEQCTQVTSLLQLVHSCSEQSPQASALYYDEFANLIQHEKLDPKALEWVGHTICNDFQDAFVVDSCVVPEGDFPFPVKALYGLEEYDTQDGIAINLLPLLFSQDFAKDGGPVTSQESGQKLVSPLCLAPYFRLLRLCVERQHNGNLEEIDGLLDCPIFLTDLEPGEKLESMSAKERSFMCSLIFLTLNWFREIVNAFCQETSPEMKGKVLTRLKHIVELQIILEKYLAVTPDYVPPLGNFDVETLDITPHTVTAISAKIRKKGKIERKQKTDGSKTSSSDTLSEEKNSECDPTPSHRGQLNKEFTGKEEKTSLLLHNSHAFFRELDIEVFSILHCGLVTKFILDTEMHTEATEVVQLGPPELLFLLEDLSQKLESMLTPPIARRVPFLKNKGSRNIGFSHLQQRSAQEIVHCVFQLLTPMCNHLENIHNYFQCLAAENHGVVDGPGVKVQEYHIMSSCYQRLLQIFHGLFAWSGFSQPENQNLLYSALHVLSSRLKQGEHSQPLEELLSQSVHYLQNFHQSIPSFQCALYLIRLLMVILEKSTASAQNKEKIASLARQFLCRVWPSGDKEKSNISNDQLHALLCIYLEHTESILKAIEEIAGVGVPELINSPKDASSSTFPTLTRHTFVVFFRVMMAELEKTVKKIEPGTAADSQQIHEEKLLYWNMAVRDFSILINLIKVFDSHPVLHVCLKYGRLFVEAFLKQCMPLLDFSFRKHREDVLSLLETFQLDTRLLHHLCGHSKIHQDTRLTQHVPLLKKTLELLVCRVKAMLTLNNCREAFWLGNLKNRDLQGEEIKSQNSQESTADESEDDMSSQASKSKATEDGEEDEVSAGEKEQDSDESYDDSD
Chain of FANCI R1285Q;FANCD2 (D2) (Q9NVI1 whole entry R1285Q, chain 1 of 2): as the sequence (Q9NVI1 whole entry, chain 1 of 2) above, with R1285Q counted along it
Chain of FANCI R1285Q;FANCD2 (D2) (Q9BXW9 whole entry, chain 2 of 2): as the sequence (Q9BXW9 whole entry, chain 2 of 2) above

B1: ds32F (dsDNA)
DNA 1: CGATCGGTAACGTATGCTGAATCTGGTGCTGG
DNA 2: CCAGCACCAGATTCAGCATACGTTACCGATCG
For B1, the binding result in data set [1] and in data set [2] was “binds” each time.
